Assay [1] concerns the target T1, human CX3CR1 (human, UniProt P49238 1-355).
T1 construct: overexpressed on CHO, BA/F3 or HEK293T cells; also called huCX3CR1; hCX3CR1
T1 sequence: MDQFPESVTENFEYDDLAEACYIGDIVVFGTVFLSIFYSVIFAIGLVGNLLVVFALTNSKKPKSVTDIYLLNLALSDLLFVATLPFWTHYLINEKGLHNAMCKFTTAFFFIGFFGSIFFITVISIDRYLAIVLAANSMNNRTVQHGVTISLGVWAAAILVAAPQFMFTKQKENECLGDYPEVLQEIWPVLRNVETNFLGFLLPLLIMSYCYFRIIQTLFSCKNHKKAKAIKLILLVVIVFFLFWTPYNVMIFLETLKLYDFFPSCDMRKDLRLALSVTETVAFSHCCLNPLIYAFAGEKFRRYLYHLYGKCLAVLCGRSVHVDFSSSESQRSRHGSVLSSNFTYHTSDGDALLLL
The assay is described as follows: fractalkine competition FACS.

In assay [2] the target is T1, human CX3CR1. The assay is described as follows: A647-fractalkine competition FACS, HEK293-huCX3CR1. The text has this: (§1) Periplasmic extracts were screened in a human CX3CR1/human Fractalkine FACS competition assay to assess the blocking capacity of the expressed VHHs. Human CX3CR1 was presented on CHO cells overexpressing CX3CR1. Both a setup using cells harvested from an actively growing culture and a setup using frozen cells was used. As a detection reagent labeled fractalkine was used (R&D Systems, Minneapolis, Minn., USA) labeled with alexa647 (A647-Fractalkine) at a degree of labeling of 1. To setup the assay, first a titration series of the labeled fractalkine was performed on the CHO-huCX3CR1 cells in order to determine the EC50 value for binding. Initially screening was performed at a higher concentration of fractalkine (3 nM) to increase the assay robustness. To increase the sensitivity of the screening to a maximum, the EC30 concentration (1 nM) was chosen for subsequent screening. In brief 50 μl of periplasmic extract was added to 6 nM labeled fractalkine (50 μ;) and 200 000 CHO-huCX3CR1 cells. After one hour incubation at 4 C, cells were washed three times before read out was performed on a FACS Array (Becton Dickinson). First a gate was set on the intact cells as determined from the scatter profile. Next, dead cells were gated out by their fluorescence profile from the PI stain (Sigma, St Louis, US). The fluorescence profile from the alexa647 label was determined for each sample and used for calculation of blocking capacity. As controls, conditions were taken along where there was no VHH present in the peri extract or a known irrelevant VHH and samples were included where excess cold fractalkine was included. For each sample the percentage block was determined using the control samples to determine the assay window.
The blocking capacity towards the ligand fractalkine of the VHHs was evaluated in a human CX3CR1 competition FACS as outlined in Example 4. Either CHO-huCX3CR1 cells, BA/F3-huCX3CR1 cells or transiently transfected HEK293T cells were used. The amount of labeled ligand used in the different competition setups was also varied. The IC₅₀ values for VHHs blocking the interaction of human fractalkine to human CX3CR1 are depicted in Table 19.

The target in assay [3] is T2, cynomolgus CX3CR1 (cynomolgus, UniProt P49238 1-355 (human entry)).
T2 construct: transiently expressed on HEK293T cells; also called cyCX3CR1; cyno CX3CR1
T2 chain: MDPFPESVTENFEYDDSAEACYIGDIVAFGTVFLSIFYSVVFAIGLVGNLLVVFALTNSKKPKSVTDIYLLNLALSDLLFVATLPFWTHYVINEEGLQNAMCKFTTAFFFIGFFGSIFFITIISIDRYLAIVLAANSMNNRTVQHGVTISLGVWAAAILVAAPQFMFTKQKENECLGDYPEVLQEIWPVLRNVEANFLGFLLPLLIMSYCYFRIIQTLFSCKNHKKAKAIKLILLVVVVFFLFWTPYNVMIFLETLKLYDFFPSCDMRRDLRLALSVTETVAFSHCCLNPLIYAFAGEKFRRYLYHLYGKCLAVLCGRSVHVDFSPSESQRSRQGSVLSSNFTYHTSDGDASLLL
The assay is described as follows: A647-fractalkine competition FACS, cynomolgus against human CX3CR1.
Text: as §1
(§2) For later identified VHHs, a human Fractalkine competition FACS was set up using human or cynomolgus CX3CR1 expressed in HEK293T cells. Both the human and the cynomolgus receptor was transiently transfected in HEK293T cells and transfections were matched by the binding of the labeled ligand, human fractalkine. The competition was evaluated using the EC30 concentration of fractalkine and as such obtained IC50 values are a good estimate of the Ki value, a measure for affinity (Table 22). The experiment was performed as described in Example 4.

Assay [4] concerns the target T1, human CX3CR1. In words: periplasmic extract, A647-fractalkine competition FACS, CHO-huCX3CR1.
Text: as §1

Assay [5] has as its target T1, human CX3CR1. In words: A647-fractalkine competition FACS, HEK293T human CX3CR1.
Text: as §1, §2

Assay [6] deals with T2, cynomolgus CX3CR1. The assay is described as follows: A647-fractalkine competition FACS, HEK293T cynomolgus CX3CR1.
Text: as §1, §2

Assay [7] deals with T1, human CX3CR1. In words: fractalkine competition FACS. The source holds these as a separate data set.

B1: C100CX3CR1BII061 (VHH)
VHH: EVQLVESGGGLVQPGGSLRLSCAASGSIFSSNAMAWYRQAPGKRRDLVAAINSVGVTKYADSVKGRFTISRDNSKNTVYLQMNSLRPEDTAVYYCTSDPRRGWDTRYWGQGTLVTVSS
notes: 66B02 with S11L, A14P, E16G, A74S, K83R, Q108L; not shown: myc/His tag
In general, IC50 refers to the concentration that gives 50% inhibition. Lower therefore signals inhibition by little substance. Turning to B1, in the assay with human CX3CR1 [1], the “% block” value came out at 98.9% and the half-maximal inhibitory concentration (IC50) worked out at 1.4 nM.

B2: CX3CR1BIIPMP61F11 (VHH)
VHH: KVQLVESGGGSVQAGESLRLSCAASGSIFSSNAMAWYRQPPGKQRDLVAAINSVGITKYADSVKGRFTIFRDNAKNTVYLQMNSLKPEDTAVYYCTSDPRRGWDTRYWGQGTQVTVSS
notes: not shown: C-terminal c-myc and His6 tags
As for B2, the “% block” value with human CX3CR1 [2] is 96%; with human CX3CR1 [4] it was 96.5%; with human CX3CR1 [5], 96%; in the assay with cynomolgus CX3CR1 [6], 95%. The half-inhibitory concentration (IC50) came out at 46 nM with human CX3CR1 [2], 46 nM with human CX3CR1 [5] and 160 nM in the assay with cynomolgus CX3CR1 [6]. For the same molecule, the “ratio (cynomolgus/human IC50)” value in the assay with cynomolgus CX3CR1 [3] turned out to be 3.58.

B3: CX3CR1BII66B02 (N52T, Q108L) (VHH, name in Kabat numbering)
VHH: EVQLVESGGGSVQAGESLRLSCAASGSIFSSNAMAWYRQAPGKRRDLVAAITSVGVTKYADSVKGRFTISRDNAKNTVYLQMNSLKPEDTAVYYCTSDPRRGWDTRYWGQGTLVTVSS
notes: Kabat numbering
For B3, in the assay with human CX3CR1 [7], the “% block” value stood at 98% and the IC50 was 2.8 nM.

B4: CX3CR1BIIPMP61E2 (VHH)
VHH: EVQLVESGGGSVQAGESLRLSCAASGSIFSSNAMAWYRQAPGKQRDLVAGINSVGITKYADSVKGRFTISRDNAKNTVYLQMNSLKPEDMAVYYCTSDPRRGWDTRYWGQGTQVTVSS
notes: also called 61E02; not shown: C-terminal c-myc and His6 tags
Regarding B4, the “% block” value with human CX3CR1 [2] came out at 98%; with human CX3CR1 [4], 70.3%; with human CX3CR1 [5], 98%; in the assay with cynomolgus CX3CR1 [6], 96%. Also, the IC50 is 82 nM with human CX3CR1 [2], 82 nM in the assay with human CX3CR1 [5] and 46 nM in the assay with cynomolgus CX3CR1 [6]. Also, the “ratio (cynomolgus/human IC50)” value in the assay with cynomolgus CX3CR1 [3] amounted to 0.55.

B5: CX3CR1BII66B02 (S53P, Q108L) (VHH, name in Kabat numbering)
VHH: EVQLVESGGGSVQAGESLRLSCAASGSIFSSNAMAWYRQAPGKRRDLVAAINPVGVTKYADSVKGRFTISRDNAKNTVYLQMNSLKPEDTAVYYCTSDPRRGWDTRYWGQGTLVTVSS
notes: Kabat numbering
As to B5, in the assay with human CX3CR1 [7], the “% block” value is 98.2% and the 50% inhibitory concentration (IC50) is 0.8 nM.

B6: CX3CR1BII66B02 (N52G, Q108L) (VHH, name in Kabat numbering)
VHH: EVQLVESGGGSVQAGESLRLSCAASGSIFSSNAMAWYRQAPGKRRDLVAAIGSVGVTKYADSVKGRFTISRDNAKNTVYLQMNSLKPEDTAVYYCTSDPRRGWDTRYWGQGTLVTVSS
notes: Kabat numbering
With B6, in the assay with human CX3CR1 [7], the “% block” value turned out to be 98% and the half-maximal inhibitory concentration (IC50) turned out to be 1.1 nM.

B7: CX3CR1BII66B02 (N52S, Q108L) (VHH, name in Kabat numbering)
VHH: EVQLVESGGGSVQAGESLRLSCAASGSIFSSNAMAWYRQAPGKRRDLVAAISSVGVTKYADSVKGRFTISRDNAKNTVYLQMNSLKPEDTAVYYCTSDPRRGWDTRYWGQGTLVTVSS
Take B7: in the assay with human CX3CR1 [7], the “% block” value came to 98% and the half-maximal inhibitory concentration (IC50) came to 1.7 nM.

B8: CX3CR1BII66B02 (S53T, Q108L) (VHH, name in Kabat numbering)
VHH: EVQLVESGGGSVQAGESLRLSCAASGSIFSSNAMAWYRQAPGKRRDLVAAINTVGVTKYADSVKGRFTISRDNAKNTVYLQMNSLKPEDTAVYYCTSDPRRGWDTRYWGQGTLVTVSS
notes: Kabat numbering
On to B8, for which, in the assay with human CX3CR1 [7], the “% block” value was 98.1% and the IC50 stood at 1.3 nM.

B9: CX3CR1BII66B02 (S53G, Q108L) (VHH, name in Kabat numbering)
VHH: EVQLVESGGGSVQAGESLRLSCAASGSIFSSNAMAWYRQAPGKRRDLVAAINGVGVTKYADSVKGRFTISRDNAKNTVYLQMNSLKPEDTAVYYCTSDPRRGWDTRYWGQGTLVTVSS
notes: Kabat numbering
Take B9: in the assay with human CX3CR1 [7], the “% block” value was found to be 98.3% and the IC50 came out at 1.2 nM.

B10: CX3CR1BIIPMP61B2 (VHH)
VHH: EVQLVESRGGSVQAGASLRLSCAASGSIFSSNAMAWYRQAPGKQRDLVAVINTVGITKYADSVKGRFTISRDNAKNTVYLQMNSLKPEDTAVYYCTSDARRGWDTRYWGQGTQVTVSS
notes: also called 61B02; not shown: C-terminal c-myc and His6 tags
With B10, the “% block” value with human CX3CR1 [2] came to 94%; with human CX3CR1 [4], 94.5%; in the assay with human CX3CR1 [5] it was 94%; with cynomolgus CX3CR1 [6], 92%. In addition, the IC50 in the assay with human CX3CR1 [2] stood at 10 nM; with human CX3CR1 [5], 10 nM; with cynomolgus CX3CR1 [6] it was 45 nM. Also, the “ratio (cynomolgus/human IC50)” value with cynomolgus CX3CR1 [3] was 4.37.

B11: CX3CR1BIIPMP54H1 (VHH)
VHH: EVQLVESGGGSVQAGESLRLSCAASGTIFSSNAMAWYRQAPGKQRDLVAGINSVDITKYADSVKGRFTVSRDNAKNTVYLQMNSLKPEDTAVYYCTSDPRRGWNTRYWGQGTQVTVSS
notes: also called 54H01; not shown: C-terminal c-myc and His6 tags
For B11, the “% block” value with human CX3CR1 [2] was determined as 64%; in the assay with human CX3CR1 [4], 74.6%; with human CX3CR1 [5] it was 64%; with cynomolgus CX3CR1 [6], 92%. In addition, the IC50 with human CX3CR1 [2] amounted to 10 nM; with human CX3CR1 [5], 10 nM; with cynomolgus CX3CR1 [6], 68 nM. Also, the “ratio (cynomolgus/human IC50)” value with cynomolgus CX3CR1 [3] came out at 6.48.

B12: CX3CR1BIIPMP54A4 (VHH)
VHH: EVQLVESGRGSVQAGESLRLSCAASGSIFSSNAMAWYRQAPGKQRDLVAGINSVGITKYADSVKGRFTISRDNAKNTVYLQMNSLKPEDTAVYYCTSDPRRGWDTRYWGQGTQVTVSS
notes: also called 54A04; not shown: C-terminal c-myc and His6 tags
On to B12, for which the “% block” value was 100% in the assay with human CX3CR1 [2], 86.6% with human CX3CR1 [4], 100% with human CX3CR1 [5] and 91% with cynomolgus CX3CR1 [6]. Further, the IC50 with human CX3CR1 [2] came out at 49 nM; with human CX3CR1 [5] it was 49 nM; in the assay with cynomolgus CX3CR1 [6], 31 nM. For the same molecule, in the assay with cynomolgus CX3CR1 [3], the “ratio (cynomolgus/human IC50)” value worked out at 0.64.

B13: CX3CR1BIIPMP61G3 (VHH)
VHH: KVQLVESGGGSMQAGESLRLSCAASGSIFSSNAMAWYRQAPGKQRDLVAAINSVGITKYADSVKGRFTISRDNAKNTVYLQMMSLKPEDTAVYYCTSDPRRGWDTRYWGQGTQVTVSS
notes: also called 61G03; not shown: C-terminal c-myc and His6 tags
As for B13, the “% block” value came to 96% with human CX3CR1 [2], 92.1% with human CX3CR1 [4], 96% with human CX3CR1 [5] and 89% with cynomolgus CX3CR1 [6]. In addition, the values for the IC50 with human CX3CR1 [2], with human CX3CR1 [5] and in the assay with cynomolgus CX3CR1 [6] were 60 nM, 60 nM and 300 nM, respectively. In addition, the “ratio (cynomolgus/human IC50)” value with cynomolgus CX3CR1 [3] is 5.02.

B14: CX3CR1BII66B02 (N52Q, Q108L) (VHH, name in Kabat numbering)
VHH: EVQLVESGGGSVQAGESLRLSCAASGSIFSSNAMAWYRQAPGKRRDLVAAIQSVGVTKYADSVKGRFTISRDNAKNTVYLQMNSLKPEDTAVYYCTSDPRRGWDTRYWGQGTLVTVSS
notes: Kabat numbering
With B14, in the assay with human CX3CR1 [7], the “% block” value was determined as 97.9% and the half-inhibitory concentration (IC50) came out at 2.1 nM.
